Assay results taken from publication PMC3581365 (The Journal of Biological Chemistry, 2013).

Key:
[1] = target: T1, HP0892 fused with His tag at the C terminus (HP0892-His) (H. pylori 26695, UniProt O25552 1-90); assay: NMR titration
T1 sequence: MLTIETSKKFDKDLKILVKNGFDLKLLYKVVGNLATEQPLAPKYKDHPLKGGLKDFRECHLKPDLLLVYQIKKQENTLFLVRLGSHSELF

[2] = target: T2, HP0893 expressed as a C-terminal His tag fusion (HP0893-His) (H. pylori 26695, UniProt O25553 1-95); assay: pull-down
T2 sequence (looked up): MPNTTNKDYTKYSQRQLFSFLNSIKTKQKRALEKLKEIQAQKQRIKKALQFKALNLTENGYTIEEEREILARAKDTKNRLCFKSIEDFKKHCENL

B1: HP0893Ctp, 30-residue peptide corresponding to the C-terminal region (Glu-66 to Leu-95) of HP0893 (peptide, UniProt O25553 66-95, looked up)
peptide: EREILARAKDTKNRLCFKSIEDFKKHCENL
Question: With B1 as the binder, how does the “stoichiometry N” value [1] read?
Answer: 1

B2: HP0892 without any purification tag or non-native residues (natural protein, H. pylori 26695, UniProt O25552 1-90, looked up)
chain: T1 sequence
Question: B2 was tested. Which “stoichiometry N” value [2] did it give?
Answer: 1
